# Source: patent US20230051304A1 (Regeneron, published 2023)
# B1: Fc-IL12(mutein 1) (Fc fusion)
# chain: ESKYGPPCPPCPAPPVAGPSVFLFPPKPKDTLMISRTPEVTCVVVDVSQEDPEVQFNWYVDGVEVHNAKTKPREEQFNSTYRVVSVLTVLHQDWLNGKEYKCKVSNKGLPSSIEKTISKAKGQPREPQVYTLPPSQEEMTKNQVSLTCLVKGFYPSDIAVEWESNGQPENNYKTTPPVLDSDGSFFLYSRLTVDKSRWQEGNVFSCSVMHEALHNHYTQKSLSLSLGKGGGGSGGGGSGGGGSMWELEKDVYVVEVDWTPDAPGETVNLTCDTPEEDDITWTSDQRHGVIGSGKTLTITVKEFLDAGQYTCHKGGETLSHSHLLLHKKENGIWSTEILKNFKNKTFLKCEAPNYSGRFTCSWLVQRNMDLKFNIKSSSSSPDSRAVTCGMASLSAEKVTLDQRDYEKYSVSCQEDVTCPTAEETLPIELALEARQQNKYENYSTSFFIRDIIKPDPPKNLQMKPLKNSQVEVSWEYPDSWSTPHSYFSLKFFVRIQRKKEKMKETEEGCNQKGAFLVEKTSTEVQCKGGNVCVQAQDRYYNSSCSKWACVPCRVRSGGGGSGGGGSGGGGSRVIPVSGPARCLSQSRNLLKTTDDMVKTAREKLKHYSCTAEDIDHEDITRDQTSTLKTCLPLELHKNESCLATRETSSTTRGSCLPPQKTSLMMTLCLGSIYEDLKMYQTEFQAINAALQNHNHQQIILDKGMLVAIDELMQSLNHNGETLRQKPPVGEADPARVKMKLCILLHAFSTRVVTINRVMGYLSSA
# B2: Fc-IL12(mutein 3) (Fc fusion)
# chain: ESKYGPPCPPCPAPPVAGPSVFLFPPKPKDTLMISRTPEVTCVVVDVSQEDPEVQFNWYVDGVEVHNAKTKPREEQFNSTYRVVSVLTVLHQDWLNGKEYKCKVSNKGLPSSIEKTISKAKGQPREPQVYTLPPSQEEMTKNQVSLTCLVKGFYPSDIAVEWESNGQPENNYKTTPPVLDSDGSFFLYSRLTVDKSRWQEGNVFSCSVMHEALHNHYTQKSLSLSLGKGGGGSGGGGSGGGGSMWELEKDVYVVEVDWTPDAPGETVNLTCDTPEEDDITWTSDQRHGVIGSGKTLTITVKEFLDAGQYTCHKGGETLSHSHLLLHKKENGIWSTEILKNFKNKTFLKCEAPNYSGRFTCSWLVQRNMDLKFNIKSSSSSPDSRAVTCGMASLSAEKVTLDQRDYEKYSVSCQEDVTCPTAEETLPIELALEARQQNKYENYSTSFFIRDIIKPDPPKNLQMKPLKNSQVEVSWEYPDSWSTPHSYFSLKFFVRIQRKKEKMKETEEGCNQKGAFLVEKTSTEVQCKGGNVCVQAQDRYYNSSCSKWACVPCRVRSGGGGSGGGGSGGGGSRVIPVSGPARCLSQSRNLLKTTDDMVKTAREKLKHYSCTAEDIDHEDITRDQTSTLKTCLPLELHKNESCLATRETSSTTRGSCLPPQKTSLMMTLCLGSIYEDLKMYQTEFQAINAALQNHNHQQIILDKGMLVAIDELMQSLNHNGETLRQKPPVGEADPRRVKMKLCILLHAFSTRVVTINRVMGYLSSA
# B3: Fc-IL12(mutein 8) (Fc fusion)
# chain: ESKYGPPCPPCPAPPVAGPSVFLFPPKPKDTLMISRTPEVTCVVVDVSQEDPEVQFNWYVDGVEVHNAKTKPREEQFNSTYRVVSVLTVLHQDWLNGKEYKCKVSNKGLPSSIEKTISKAKGQPREPQVYTLPPSQEEMTKNQVSLTCLVKGFYPSDIAVEWESNGQPENNYKTTPPVLDSDGSFFLYSRLTVDKSRWQEGNVFSCSVMHEALHNHYTQKSLSLSLGKGGGGSGGGGSGGGGSMWELEKDVYVVEVDATPDAPGETVNLTCDTPEEDDITWTSDQRHGVIGSGKTLTITVKEFLDAGQYTCHKGGETLSHSHLLLHKKENGIWSTEILKNFKNKTFLKCEAPNYSGRFTCSWLVQRNMDLKFNIKSSSSSPDSRAVTCGMASLSAEKVTLDQRDYEKYSVSCQEDVTCPTAEETLPIELALEARQQNKYENYSTSFFIRDIIKPDPPKNLQMKPLKNSQVEVSWEYPDSWSTPHSYFSLKFFVRIQRKKEKMKETEEGCNQKGAFLVEKTSTEVQCKGGNVCVQAQDRYYNSSCSKWACVPCRVRSGGGGSGGGGSGGGGSRVIPVSGPARCLSQSRNLLKTTDDMVKTAREKLKHYSCTAEDIDHEDITRDQTSTLKTCLPLELHKNESCLATRETSSTTRGSCLPPQKTSLMMTLCLGSIYEDLKMYQTEFQAINAALQNHNHQQIILDKGMLVAIDELMQSLNHNGETLRQKPPVGEADPYRVKMKLCILLHAFSTRVVTINRVMGYLSSA
# B4: Fc-IL12(mutein 11) (Fc fusion)
# chain: ESKYGPPCPPCPAPPVAGPSVFLFPPKPKDTLMISRTPEVTCVVVDVSQEDPEVQFNWYVDGVEVHNAKTKPREEQFNSTYRVVSVLTVLHQDWLNGKEYKCKVSNKGLPSSIEKTISKAKGQPREPQVYTLPPSQEEMTKNQVSLTCLVKGFYPSDIAVEWESNGQPENNYKTTPPVLDSDGSFFLYSRLTVDKSRWQEGNVFSCSVMHEALHNHYTQKSLSLSLGKGGGGSGGGGSGGGGSMWELEKDVYVVEVDWTPDAPGETVNLTCDTPEEDDITWTSDQRHGVIGSGKTLTITVKEFLDAGQYTCHKGGETLSHSHLLLHKKENGIWSTAILANFANATFLKCEAPNYSGRFTCSWLVQRNMDLKFNIKSSSSSPDSRAVTCGMASLSAEKVTLDQRDYEKYSVSCQEDVTCPTAEETLPIELALEARQQNKYENYSTSFFIRDIIKPDPPKNLQMKPLKNSQVEVSWEYPDSWSTPHSYFSLKFFVRIQRKKEKMKETEEGCNQKGAFLVEKTSTEVQCKGGNVCVQAQDRYYNSSCSKWACVPCRVRSGGGGSGGGGSGGGGSRVIPVSGPARCLSQSRNLLKTTDDMVKTAREKLKHYSCTAEDIDHEDITRDQTSTLKTCLPLELHKNESCLATRETSSTTRGSCLPPQKTSLMMTLCLGSIYEDLKMYQTEFQAINAALQNHNHQQIILDKGMLVAIDELMQSLNHNGETLRQKPPVGEADPYRVKMKLCILLHAFSTRVVTINRVMGYLSSA
# B5: Fc-IL12(mutein 2) (Fc fusion)
# chain: ESKYGPPCPPCPAPPVAGPSVFLFPPKPKDTLMISRTPEVTCVVVDVSQEDPEVQFNWYVDGVEVHNAKTKPREEQFNSTYRVVSVLTVLHQDWLNGKEYKCKVSNKGLPSSIEKTISKAKGQPREPQVYTLPPSQEEMTKNQVSLTCLVKGFYPSDIAVEWESNGQPENNYKTTPPVLDSDGSFFLYSRLTVDKSRWQEGNVFSCSVMHEALHNHYTQKSLSLSLGKGGGGSGGGGSGGGGSMWELEKDVYVVEVDWTPDAPGETVNLTCDTPEEDDITWTSDQRHGVIGSGKTLTITVKEFLDAGQYTCHKGGETLSHSHLLLHKKENGIWSTEILKNFKNKTFLKCEAPNYSGRFTCSWLVQRNMDLKFNIKSSSSSPDSRAVTCGMASLSAEKVTLDQRDYEKYSVSCQEDVTCPTAEETLPIELALEARQQNKYENYSTSFFIRDIIKPDPPKNLQMKPLKNSQVEVSWEYPDSWSTPHSYFSLKFFVRIQRKKEKMKETEEGCNQKGAFLVEKTSTEVQCKGGNVCVQAQDRYYNSSCSKWACVPCRVRSGGGGSGGGGSGGGGSRVIPVSGPARCLSQSRNLLKTTDDMVKTAREKLKHYSCTAEDIDHEDITRDQTSTLKTCLPLELHKNESCLATRETSSTTRGSCLPPQKTSLMMTLCLGSIYEDLKMYQTEFQAINAALQNHNHQQIILDKGMLVAIDELMQSLNHNGETLRQKPPVGEADPVRVKMKLCILLHAFSTRVVTINRVMGYLSSA
# B6: Fc-IL12(mutein 4) (Fc fusion)
# chain: ESKYGPPCPPCPAPPVAGPSVFLFPPKPKDTLMISRTPEVTCVVVDVSQEDPEVQFNWYVDGVEVHNAKTKPREEQFNSTYRVVSVLTVLHQDWLNGKEYKCKVSNKGLPSSIEKTISKAKGQPREPQVYTLPPSQEEMTKNQVSLTCLVKGFYPSDIAVEWESNGQPENNYKTTPPVLDSDGSFFLYSRLTVDKSRWQEGNVFSCSVMHEALHNHYTQKSLSLSLGKGGGGSGGGGSGGGGSMWELEKDVYVVEVDWTPDAPGETVNLTCDTPEEDDITWTSDQRHGVIGSGKTLTITVKEFLDAGQYTCHKGGETLSHSHLLLHKKENGIWSTEILKNFKNKTFLKCEAPNYSGRFTCSWLVQRNMDLKFNIKSSSSSPDSRAVTCGMASLSAEKVTLDQRDYEKYSVSCQEDVTCPTAEETLPIELALEARQQNKYENYSTSFFIRDIIKPDPPKNLQMKPLKNSQVEVSWEYPDSWSTPHSYFSLKFFVRIQRKKEKMKETEEGCNQKGAFLVEKTSTEVQCKGGNVCVQAQDRYYNSSCSKWACVPCRVRSGGGGSGGGGSGGGGSRVIPVSGPARCLSQSRNLLKTTDDMVKTAREKLKHYSCTAEDIDHEDITRDQTSTLKTCLPLELHKNESCLATRETSSTTRGSCLPPQKTSLMMTLCLGSIYEDLKMYQTEFQAINAALQNHNHQQIILDKGMLVAIDELMQSLNHNGETLRQKPPVGEADPERVKMKLCILLHAFSTRVVTINRVMGYLSSA
# B7: Fc-IL12(mutein 12) (Fc fusion)
# chain: ESKYGPPCPPCPAPPVAGPSVFLFPPKPKDTLMISRTPEVTCVVVDVSQEDPEVQFNWYVDGVEVHNAKTKPREEQFNSTYRVVSVLTVLHQDWLNGKEYKCKVSNKGLPSSIEKTISKAKGQPREPQVYTLPPSQEEMTKNQVSLTCLVKGFYPSDIAVEWESNGQPENNYKTTPPVLDSDGSFFLYSRLTVDKSRWQEGNVFSCSVMHEALHNHYTQKSLSLSLGKGGGGSGGGGSGGGGSNGIWSTEILKNFKNKTFLKCEAPNYSGRFTCSWLVQRNMDLKFNIKSSSSSPDSRAVTCGMASLSAEKVTLDQRDYEKYSVSCQEDVTCPTAEETLPIELALEARQQNKYENYSTSFFIRDIIKPDPPKNLQMKPLKNSQVEVSWEYPDSWSTPHSYFSLKFFVRIQRKKEKMKETEEGCNQKGAFLVEKTSTEVQCKGGNVCVQAQDRYYNSSCSKWACVPCRVRSGGGGSGGGGSGGGGSRVIPVSGPARCLSQSRNLLKTTDDMVKTAREKLKHYSCTAEDIDHEDITRDQTSTLKTCLPLELHKNESCLATRETSSTTRGSCLPPQKTSLMMTLCLGSIYEDLKMYQTEFQAINAALQNHNHQQIILDKGMLVAIDELMQSLNHNGETLRQKPPVGEADPYRVKMKLCILLHAFSTRVVTINRVMGYLSSA
# Molecular target: murine IL12 receptor complex (IL12Rβ1 and IL12Rβ2) (mouse, UniProt Q60837 20-738; P97378 24-874)
# Experiment: cell-based or functional assay
# Sequence of murine IL12 receptor complex (IL12Rβ1 and IL12Rβ2) (Q60837 20-738, chain 1 of 2): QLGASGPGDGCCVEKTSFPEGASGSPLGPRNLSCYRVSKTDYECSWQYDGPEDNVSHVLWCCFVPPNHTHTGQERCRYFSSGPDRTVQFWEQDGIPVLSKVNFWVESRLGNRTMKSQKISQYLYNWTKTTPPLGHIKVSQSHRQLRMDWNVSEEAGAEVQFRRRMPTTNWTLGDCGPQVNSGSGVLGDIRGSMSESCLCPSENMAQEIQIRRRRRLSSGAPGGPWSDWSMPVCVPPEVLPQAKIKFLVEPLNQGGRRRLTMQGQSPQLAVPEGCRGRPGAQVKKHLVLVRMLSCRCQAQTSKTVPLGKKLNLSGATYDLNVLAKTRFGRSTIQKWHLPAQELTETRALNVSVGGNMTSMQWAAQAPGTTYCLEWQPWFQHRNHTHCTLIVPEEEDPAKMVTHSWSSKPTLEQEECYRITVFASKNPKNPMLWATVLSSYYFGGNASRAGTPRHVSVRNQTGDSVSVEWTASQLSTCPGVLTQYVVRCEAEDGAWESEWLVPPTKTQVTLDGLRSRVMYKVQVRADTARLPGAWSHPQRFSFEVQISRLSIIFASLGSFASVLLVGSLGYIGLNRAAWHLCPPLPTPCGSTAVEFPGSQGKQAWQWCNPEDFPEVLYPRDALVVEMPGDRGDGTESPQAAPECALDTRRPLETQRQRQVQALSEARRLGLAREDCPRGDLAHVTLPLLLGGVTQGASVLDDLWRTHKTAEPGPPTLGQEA
# Sequence of murine IL12 receptor complex (IL12Rβ1 and IL12Rβ2) (P97378 24-874, chain 2 of 2): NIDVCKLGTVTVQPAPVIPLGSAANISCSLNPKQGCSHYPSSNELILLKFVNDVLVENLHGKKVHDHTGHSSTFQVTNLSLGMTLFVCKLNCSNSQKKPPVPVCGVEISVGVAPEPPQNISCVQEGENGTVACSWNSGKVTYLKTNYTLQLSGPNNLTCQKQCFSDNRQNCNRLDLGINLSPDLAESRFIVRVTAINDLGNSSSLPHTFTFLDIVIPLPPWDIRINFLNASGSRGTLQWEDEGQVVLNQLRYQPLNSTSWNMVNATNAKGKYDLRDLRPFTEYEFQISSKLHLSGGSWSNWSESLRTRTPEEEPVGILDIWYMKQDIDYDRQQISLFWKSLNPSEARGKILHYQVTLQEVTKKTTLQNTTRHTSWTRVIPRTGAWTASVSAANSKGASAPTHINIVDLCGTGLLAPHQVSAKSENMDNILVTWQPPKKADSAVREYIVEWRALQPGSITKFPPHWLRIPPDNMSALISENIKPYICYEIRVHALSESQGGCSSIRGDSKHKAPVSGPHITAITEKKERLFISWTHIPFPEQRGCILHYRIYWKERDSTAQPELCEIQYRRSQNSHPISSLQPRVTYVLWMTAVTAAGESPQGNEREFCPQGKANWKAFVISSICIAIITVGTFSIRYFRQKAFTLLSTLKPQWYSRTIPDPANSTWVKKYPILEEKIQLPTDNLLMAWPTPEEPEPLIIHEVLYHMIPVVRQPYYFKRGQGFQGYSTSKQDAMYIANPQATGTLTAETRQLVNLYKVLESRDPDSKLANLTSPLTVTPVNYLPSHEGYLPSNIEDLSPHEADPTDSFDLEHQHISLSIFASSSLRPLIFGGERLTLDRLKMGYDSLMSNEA
Binder,"EC50 (M); STAT3-Luc reporter, CTLL2/STAT3-Luc cells","Fold induction at 20 nM; STAT3-Luc reporter, CTLL2/STAT3-Luc cells","Max fold induction; STAT3-Luc reporter, CTLL2/STAT3-Luc cells"
B1,1.76e-10 M,4.52 fold,4.52 fold
B2,–,1.06 fold,1.11 fold
B3,8.05e-10 M,10 fold,10.1 fold
B4,1.33e-09 M,8.93 fold,10.2 fold
B5,2.6e-10 M,5.41 fold,5.9 fold
B6,–,1.12 fold,1.16 fold
B7,–,1.04 fold,1.1 fold
